The text below walks through data of patent US20180282410A1 (Hoffmann-La Roche, published 2018).

Assay [1] has as its target T1, full-length human Robo 4 (on cells) (human, UniProt Q8WZ75 28-1007).
T1 sequence: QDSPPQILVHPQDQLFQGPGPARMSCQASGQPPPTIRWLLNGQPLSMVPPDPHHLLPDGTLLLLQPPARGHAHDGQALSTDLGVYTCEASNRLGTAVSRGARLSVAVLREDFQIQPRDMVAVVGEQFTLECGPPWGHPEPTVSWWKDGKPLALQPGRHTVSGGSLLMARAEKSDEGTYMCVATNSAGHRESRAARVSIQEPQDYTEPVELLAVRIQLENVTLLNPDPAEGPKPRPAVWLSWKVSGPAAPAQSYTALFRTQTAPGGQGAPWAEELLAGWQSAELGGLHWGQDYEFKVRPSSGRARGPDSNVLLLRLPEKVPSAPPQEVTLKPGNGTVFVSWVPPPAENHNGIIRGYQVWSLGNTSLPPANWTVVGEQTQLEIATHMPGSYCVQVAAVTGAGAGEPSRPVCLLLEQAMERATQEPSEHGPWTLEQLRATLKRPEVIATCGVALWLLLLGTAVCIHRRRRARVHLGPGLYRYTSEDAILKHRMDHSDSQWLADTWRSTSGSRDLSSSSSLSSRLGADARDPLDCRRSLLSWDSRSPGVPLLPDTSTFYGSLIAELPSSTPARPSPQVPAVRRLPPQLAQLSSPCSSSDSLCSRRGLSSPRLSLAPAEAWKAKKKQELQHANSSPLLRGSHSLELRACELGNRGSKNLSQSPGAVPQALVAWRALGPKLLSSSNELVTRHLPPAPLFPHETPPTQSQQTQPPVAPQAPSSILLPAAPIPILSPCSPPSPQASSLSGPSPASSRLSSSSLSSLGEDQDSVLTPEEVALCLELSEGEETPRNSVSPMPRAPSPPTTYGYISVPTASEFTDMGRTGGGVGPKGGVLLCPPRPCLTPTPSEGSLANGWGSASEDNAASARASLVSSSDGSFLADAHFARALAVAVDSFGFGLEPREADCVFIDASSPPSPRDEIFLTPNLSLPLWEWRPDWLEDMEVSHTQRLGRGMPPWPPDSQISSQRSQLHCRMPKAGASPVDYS
The assay can be described thus: cell-based or functional assay.

Assay [2] concerns the target T1, full-length human Robo 4 (on cells). Description: cell-based or functional assay. The source holds these as a separate data set.

B1: Molecule L, 2+1 Fab-Fab-CrossFab (VH/VL exchange in CD3 binder, CD3 binder V9, Robo 4 binders 01F05) (bispecific antibody)
chain 1: QVQLKQSGAELVKPGASVKISCKTSVYTFTYGYMHWVEQKPGQGLEWIGRIDPDSGNSMYNQKFQGRATLTRDKSSSTVYMELRSLTSEDSAVYYCARSMRYSGYRDYALDLWGQGTQVTVSSASTKGPSVFPLAPSSKSTSGGTAALGCLVKDYFPEPVTVSWNSGALTSGVHTFPAVLQSSGLYSLSSVVTVPSSSLGTQTYICNVNHKPSNTKVDKKVEPKSCDGGGGSGGGGSQVQLKQSGAELVKPGASVKISCKTSVYTFTYGYMHWVEQKPGQGLEWIGRIDPDSGNSMYNQKFQGRATLTRDKSSSTVYMELRSLTSEDSAVYYCARSMRYSGYRDYALDLWGQGTQVTVSSASTKGPSVFPLAPSSKSTSGGTAALGCLVKDYFPEPVTVSWNSGALTSGVHTFPAVLQSSGLYSLSSVVTVPSSSLGTQTYICNVNHKPSNTKVDKKVEPKSCDGGGGSGGGGSDIQMTQSPSSLSASVGDRVTITCRASQDIRNYLNWYQQKPGKAPKLLIYYTSRLESGVPSRFSGSGSGTDYTLTISSLQPEDFATYYCQQGNTLPWTFGQGTKVEIKSSASTKGPSVFPLAPSSKSTSGGTAALGCLVKDYFPEPVTVSWNSGALTSGVHTFPAVLQSSGLYSLSSVVTVPSSSLGTQTYICNVNHKPSNTKVDKKVEPKSC
chain 2: QLVLTQSPSASASLGASVKLTCTLSSQHSSYGITWLQQHPDKAPKYVMYLKSDGSHTKGADIPDRFSGSSSGVHRYLSISNVQPEDEAIYFCVTYDSTHVFGSGTQLTVLGQPKAAPSVTLFPPSSEELQANKATLVCLISDFYPGAVTVAWKADSSPVKAGVETTTPSKQSNNKYAASSYLSLTPEQWKSHRSYSCQVTHEGSTVEKTVAPTECS
chain 3: EVQLVESGGGLVQPGGSLRLSCAASGYSFTGYTMNWVRQAPGKGLEWVALINPYKGVSTYNQKFKDRFTISVDKSKNTAYLQMNSLRAEDTAVYYCARSGYYGDSDWYFDVWGQGTLVTVSSASVAAPSVFIFPPSDEQLKSGTASVVCLLNNFYPREAKVQWKVDNALQSGNSQESVTEQDSKDSTYSLSSTLTLSKADYEKHKVYACEVTHQGLSSPVTKSFNRGEC
B1: in assay [1], the “EC50 of T-cell mediated killing of HUVECs (LDH release, human PBMCs, E:T 10:1), 24 h” value was 372 pM and the “EC50 of T-cell mediated killing of HUVECs (LDH release, human PBMCs, E:T 10:1), 48 h” value turned out to be 236 pM.

B2: Molecule D, 1+1 CrossFab-IgG (VH/VL exchange in CD3 binder, CD3 binder V9, Robo 4 binder 7G2) (bispecific antibody)
chain 1: not shown
chain 2: EIVLTQSPGTLSLSPGERATLSCRASQSVSSSYLAWYQQKPGQAPRLLIYGASSRATGIPDRFSGSGSGTDFTLTISRLEPEDFAVYYCQQGQLPPRTFGQGTKVEIKRTVAAPSVFIFPPSDEQLKSGTASVVCLLNNFYPREAKVQWKVDNALQSGNSQESVTEQDSKDSTYSLSSTLTLSKADYEKHKVYACEVTHQGLSSPVTKSFNRGEC
chain 3: B1 chain 3
chain 4: DKTHTCPPCPAPEAAGGPSVFLFPPKPKDTLMISRTPEVTCVVVDVSHEDPEVKFNWYVDGVEVHNAKTKPREEQYNSTYRVVSVLTVLHQDWLNGKEYKCKVSNKALGAPIEKTISKAKGQPREPQVCTLPPSRDELTKNQVSLSCAVKGFYPSDIAVEWESNGQPENNYKTTPPVLDSDGSFFLVSKLTVDKSRWQQGNVFSCSVMHEALHNHYTQKSLSLSPGK
Consider B2, for which, in assay [2], the “EC50 of T-cell mediated killing of HUVECs (LDH release, human pan T cells, E:T 5:1, 22 h)” value is 3140 pM.

B3: Molecule H, 1+1 Fab-CrossFab (VH/VL exchange in CD3 binder, CD3 binder V9, Robo 4 binder 7G2) (bispecific antibody)
chain 1: not shown
chain 2: B2 chain 2
chain 3: B1 chain 3
Consider B3, for which the “EC50 of T-cell mediated killing of HUVECs (LDH release, human pan T cells, E:T 5:1, 22 h)” value in assay [2] was 2760 pM.

B4: Molecule A, 1+1 CrossFab-IgG (VH/VL exchange in CD3 binder, CD3 binder V9, Robo 4 binder 01F09) (bispecific antibody)
chain 1: not shown
chain 2: QPVLTQSPSASASLGASVKLTCTLNSQFSTYNIGWYQQHRDKPPKYVMFVKGDGGHSKADGIPDRFSGSSSGADRYLTISNIQAEDEAIYFCGADYNNAGQYGCVFGSGTHFTVLGQPKAAPSVTLFPPSSEELQANKATLVCLISDFYPGAVTVAWKADSSPVKAGVETTTPSKQSNNKYAASSYLSLTPEQWKSHRSYSCQVTHEGSTVEKTVAPTECS
chain 3: B1 chain 3
chain 4: B2 chain 4
For the molecule B4, the “EC50 of T-cell mediated killing of HUVECs (LDH release, human pan T cells, E:T 5:1, 22 h)” value in assay [2] worked out at 137 pM.
